Measured values reported in paper PMC9931771, “Surufatinib plus toripalimab in patients with advanced solid tumors: a single-arm, open-label, phase 1 trial” (Journal of Cancer Research and Clinical Oncology, 2022).

What was measured:
[1] = Phase 1 trial: pharmacokinetics of surufatinib and toripalimab (non-compartmental analysis); format: in vivo, human
Source text: Blood samples were collected for PK evaluation at multiple time points on Cycle 1 Day 1, Cycle 2 Day 1, and Cycle 3 Day 1 for surufatinib and toripalimab, respectively.
DLT events were based on the DLT evaluable population, including patients who received at least 1 cycle of treatment and completed all safety assessments within the DLT assessment window or discontinued early due to DLT in the dose-escalation stage. All safety analyses, progression-free survival (PFS), and overall survival (OS) statistics were based on the safety population, including patients who received at least 1 dose of any study drug. All efficacy endpoints, excluding PFS and OS, were analyzed based on the efficacy evaluable population, including all patients who received at least 1 dose of any study drug and had tumor assessment at baseline and post drug administration prior to initiation of new anti-cancer therapies. The PK analysis was based on the PK population, which included all patients who received at least one dose of the study drug, had at least one PK sample collected and analyzed, and had no protocol deviation that might affect the PK data.
Two-sided 95% confidence interval (CI) of ORR and DCR were computed using the Exact (Clopper–Pearson) method. For time-to-event variables [PFS, OS, DoR (duration of response) and TTR (time to response)], median event time as well as the corresponding 95% CI were estimated using Kaplan–Meier method. All statistical analyses were performed using SAS 9.4 software. Adverse events (AEs) were graded by NCI CTCAE (Common Terminology Criteria for Adverse Events) v4.03, and coded using the Medical Dictionary for Regulatory Activities (MedDRA) v23.1. Treatment-related AEs (TRAEs) referred to AEs related to surufatinib or toripalimab, which were judged by the investigators. PK parameters were calculated by non-compartmental analysis using Phoenix WinNonlin v8.0.

[2] = test system: NEN patients (Ki-67 ≥ 10%); parameters: method as in Lu et al. [2020]; details: NEN patients (Ki-67 ≥ 10%) after failure of first line therapy; ref Lu et al. [2020]; cited from earlier work
[3] = surufatinib 200 mg + toripalimab 240 mg, C1D1, N 6
[4] = surufatinib 200 mg + toripalimab 240 mg, C2D1, N 4
[5] = surufatinib 200 mg + toripalimab 240 mg, C3D1, N 3
[6] = surufatinib 250 mg + toripalimab 240 mg, C1D1, N 12
[7] = surufatinib 250 mg + toripalimab 240 mg, C2D1, N 11
[8] = surufatinib 250 mg + toripalimab 240 mg, C3D1, N 10
[9] = surufatinib 300 mg + toripalimab 240 mg, C1D1, N 12
[10] = surufatinib 300 mg + toripalimab 240 mg, C2D1, N 10
[11] = surufatinib 300 mg + toripalimab 240 mg, C3D1, N 9

toripalimab
Toripalimab accumulation ratio of AUC0-τ ([1]; Cycle 2 Day 1 compared to Cycle 1 Day 1, 240 mg Q3W): 1.3–1.5
Toripalimab exposure (AUC0-τ) across surufatinib dose levels ([1]; concomitant administration with surufatinib at different dose levels): similar
Toripalimab AUC0-τ, geometric mean (CV%) [1, 3]: 15925 (22.8) h×µg/mL
Toripalimab CL, geometric mean (CV%) [1, 3]: 11.1 (30.8) mL/h
Toripalimab Cmax, geometric mean (CV%) [1, 3]: 78.1 (15.2) µg/mL
Toripalimab Tmax, median [1, 3]: 1.96 h
Toripalimab t1/2, median [1, 3]: 231 h
Toripalimab AUC0-τ, geometric mean (CV%) [1, 4]: 21512 (26.4) h×µg/mL
Toripalimab CL, geometric mean (CV%) [1, 4]: 11.2 (24.3) mL/h
Toripalimab Cmax, geometric mean (CV%) [1, 4]: 96.2 (17.9) µg/mL
Toripalimab Tmax, median [1, 4]: 2.63 h
Toripalimab t1/2, median [1, 4]: 320 h
Toripalimab AUC0-τ, geometric mean (CV%) [1, 5]: 24626 (34.9) h×µg/mL
Toripalimab CL, geometric mean (CV%) [1, 5]: 9.75 (29.6) mL/h
Toripalimab Cmax, geometric mean (CV%) [1, 5]: 110 (29.0) µg/mL
Toripalimab Tmax, median [1, 5]: 1.45 h
Toripalimab t1/2, median [1, 5]: 390 h
Toripalimab AUC0-τ, geometric mean (CV%) [1, 6]: 14142 (25.6) h×µg/mL
Toripalimab CL, geometric mean (CV%) [1, 6]: 13.0 (32.9) mL/h
Toripalimab Cmax, geometric mean (CV%) [1, 6]: 71.4 (21.6) µg/mL
Toripalimab Tmax, median [1, 6]: 1.85 h
Toripalimab t1/2, median [1, 6]: 237 h
Toripalimab AUC0-τ, geometric mean (CV%) [1, 7]: 17176 (31.5) h×µg/mL
Toripalimab CL, geometric mean (CV%) [1, 7]: 14.0 (37.2) mL/h
Toripalimab Cmax, geometric mean (CV%) [1, 7]: 83.8 (24.5) µg/mL
Toripalimab Tmax, median [1, 7]: 1.13 h
Toripalimab t1/2, median [1, 7]: 259 h
Toripalimab AUC0-τ, geometric mean (CV%) [1, 8]: 20157 (39.5) h×µg/mL
Toripalimab CL, geometric mean (CV%) [1, 8]: 11.9 (52.0) mL/h
Toripalimab Cmax, geometric mean (CV%) [1, 8]: 97.4 (25.0) µg/mL
Toripalimab Tmax, median [1, 8]: 1.87 h
Toripalimab t1/2, median [1, 8]: 246 h
Toripalimab AUC0-τ, geometric mean (CV%) [1, 9]: 16458 (25.0) h×µg/mL
Toripalimab CL, geometric mean (CV%) [1, 9]: 11.0 (22.1) mL/h
Toripalimab Cmax, geometric mean (CV%) [1, 9]: 81.2 (24.5) µg/mL
Toripalimab Tmax, median [1, 9]: 1.12 h
Toripalimab t1/2, median [1, 9]: 234 h
Toripalimab AUC0-τ, geometric mean (CV%) [1, 10]: 20660 (33.7) h×µg/mL
Toripalimab CL, geometric mean (CV%) [1, 10]: 11.6 (27.6) mL/h
Toripalimab Cmax, geometric mean (CV%) [1, 10]: 98.1 (27.5) µg/mL
Toripalimab Tmax, median [1, 10]: 1.26 h
Toripalimab t1/2, median [1, 10]: 246 h
Toripalimab AUC0-τ, geometric mean (CV%) [1, 11]: 20063 (46.6) h×µg/mL
Toripalimab CL, geometric mean (CV%) [1, 11]: 12.0 (35.8) mL/h
Toripalimab Cmax, geometric mean (CV%) [1, 11]: 103 (33.2) µg/mL
Toripalimab Tmax, median [1, 11]: 1.17 h
Toripalimab t1/2, median [1, 11]: 241 h
DCR [2]: 35%
ORR [2]: 20%
